Test results published in patent publication US20120093837A1 (CELL SIGNALING TECHNOLOGY INC A, published 2012).

Columns and labels:
[1] = target: phage-displayed peptide …; experiment: phage display biopanning on plate-coated antibody, PhD 12 library, three rounds
[2] = target: T1, human EGFR with E746-A750 deletion (human, UniProt P00533 25-1210); experiment: IHC on paraffin-embedded xenografts and cell pellets
T1 construct: Endogenous mutant EGFR of HCC827 and H1650 cells and of NSCLC tumor samples; also called EGFR (E746-A750del); dEGFR
Experimental: To test the specificity of binding of the rabbit monoclonal antibodies described in Example 1, xenografts were prepared of human cancer cells in nude mice.
For […] analysis, all analyses were performed on formalin-fixed, paraffin-embedded blocks. Serial 4-um-thick tissue sections were cut from TMAs for immunohistochemistry study. The slides were baked at 55° C. overnight, then deparaffinized in xylene and rehydrated through a graded series of ethanol concentrations. Antigen retrieval (microwave boiling for 10 minutes in 1 mM EDTA) was performed. Intrinsic peroxidase activity was blocked by 3% hydrogen peroxide for 10 min. 5% goat serum (Sigma) solution was used for blocking nonspecific antibody binding, and the optimally diluted primary antibodies were applied to cover the specimen. Slides were incubated at 4° C. overnight. After three washes in TBS-T for 5 minutes each, slides were incubated for 30 min with labeled polymer-HRP anti-rabbit secondary antibody at room temperature. Following three additional washes in TBS-T, slides were visualized using substrate-chromagen (Envision™+kit, commercially available from Dako). Sections were scanned at low magnification. Intensity of the staining as well as percentage of positive cells was recorded. Stain intensity was scored from 0 to 3+, based on the, staining intensity and percentage of positive cells were recorded.

Clone Frequency [1]: 1 of 9 clones | binding result [2]: no binding
B1: EGFR L858R (43B2E11E5B2) rabbit monoclonal antibody (antibody, V domains shown)
VH: QSVEESGGRLVTPGTPLTLTCTVSGFSLNTYGVSWVRQAPGKGLEWIGYIFTDGQTYYASWAKGRFTISKTSSTTVDLKITSPTTEDTATYFCASVDIWGPGTPVTVSS
VL: AQVLTQTPSPVSAAVGSTVTIKCQSSPSVYSNYLSWYQQKSGQPPKQLIYDASHLASGVPSRFSGSGSGTQFTLTISGVQCDDAATYYCLGSYDCSSVDCHAFGGGTEVVVKG
notes: Rabbit monoclonal from a hybridoma clone; also called L858R RmAb; L858R-specific antibody
